Experimental data as given in patent US20210388110A1 (published 2021).

Biological target: T1, soluble human CD3ε chain (human, UniProt P07766 23-126, limits assumed)
T1 construct: also called human CD3 epsilon chain
Assay: SPR (Biacore), soluble human CD3ε chain

T1 sequence (P07766 23-126 limits assumed): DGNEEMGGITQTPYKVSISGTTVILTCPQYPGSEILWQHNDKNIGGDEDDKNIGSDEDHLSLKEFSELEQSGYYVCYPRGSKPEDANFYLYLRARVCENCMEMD

| Binder | Kd [nM] |
| --- | --- |
| TR01H024-E22Hh/none-Hi-Kn010G3/L0000-k0 (antibody, human IgG1, kappa, L234A L235A, N297A, one-arm antibody (single Fab) with Fab-less hinge-Fc chain Hi-Kn010G3) heavy: QVQLVESGGGLVQPGGSLRLSCAASGFTFSNAWMHWVRQAPGKGLEWVAQIKGKSQNYATYYAESVKGRFTISRADSKNSIYLQMNSLKTEDTAVYYCRYVHYSASYGVDAWGQGTTVTVSSASTKGPSVFPLAPSSKSTSGGTAALGCLVKDYFPEPVTVSWNSGALTSGVHTFPAVLQSSGLYSLSSVVTVPSSSLGTQTYICNVNHKPSNTKVDKKVEPKSCDKTHTCPPCPAPEAAGGPSVFLFPPKPKDTLMISRTPEVTCVVVDVSHEDPEVKFNWYVDGVEVHNAKTKPREEQYASTYRVVSVLTVLHQDWLNGKEYKCKVSNKALPAPIEKTISKAKGQPREPQVYTLPPSRCELTKNQVSLSCAVKGFYPSDIAVEWESNGQPENNYKTTPPVLDSDGSFFLVSKLTVDKSRWQQGNVFSCSVMHEALHNHYTQKSLSLSPDYKDDDDK EPKSSDKTHTCPPCPAPELLGGPSVFLFPPKPKDTLMISRTPEVTCVVVDVSHEDPEVKFNWYVDGVEVHNAKTKPREEQYNSTYRVVSVLTVLHQDWLNGKEYKCKVSNKALPAPIEKTISKAKGQPREPQVCTLPPSRDELTKNQVSLWCLVKGFYPSDIAVEWESNGQPENNYKTTPPVLDSDGSFFLYSKLTVDKSRWQQGNVFSCSVMHEALHNRYTQKSLSLSP light: DIVMTQSPLSLPVTPGEPASISCRSSQSLVHSNRNTYLHWYQQKPGQAPRLLIYKVSNRFSGVPDRFSGSGSGTDFTLKISRVEAEDVGVYYCGQGTQVPYTFGQGTKLEIKRTVAAPSVFIFPPSDEQLKSGTASVVCLLNNFYPREAKVQWKVDNALQSGNSQESVTEQDSKDSTYSLSSTLTLSKADYEKHKVYACEVTHQGLSSPVTKSFNRGEC | 108 |
| TR01H031-E22Hh/none-Hi-Kn010G3/L0000-k0 (antibody, human IgG1, kappa, L234A L235A, N297A, one-arm antibody (single Fab) with Fab-less hinge-Fc chain Hi-Kn010G3) heavy: QVQLVESGGGVVQPGGSLRLSCAASGFTFSNAWMHWVRQAPGKGLEWVAQIKGKSNNYATYYAESVKGRFTISRADSKNSIYLQMNSLKTEDTAVYYCRYVHYSASYGVDIWGQGTTVTVSSASTKGPSVFPLAPSSKSTSGGTAALGCLVKDYFPEPVTVSWNSGALTSGVHTFPAVLQSSGLYSLSSVVTVPSSSLGTQTYICNVNHKPSNTKVDKKVEPKSCDKTHTCPPCPAPEAAGGPSVFLFPPKPKDTLMISRTPEVTCVVVDVSHEDPEVKFNWYVDGVEVHNAKTKPREEQYASTYRVVSVLTVLHQDWLNGKEYKCKVSNKALPAPIEKTISKAKGQPREPQVYTLPPSRCELTKNQVSLSCAVKGFYPSDIAVEWESNGQPENNYKTTPPVLDSDGSFFLVSKLTVDKSRWQQGNVFSCSVMHEALHNHYTQKSLSLSPDYKDDDDK EPKSSDKTHTCPPCPAPELLGGPSVFLFPPKPKDTLMISRTPEVTCVVVDVSHEDPEVKFNWYVDGVEVHNAKTKPREEQYNSTYRVVSVLTVLHQDWLNGKEYKCKVSNKALPAPIEKTISKAKGQPREPQVCTLPPSRDELTKNQVSLWCLVKGFYPSDIAVEWESNGQPENNYKTTPPVLDSDGSFFLYSKLTVDKSRWQQGNVFSCSVMHEALHNRYTQKSLSLSP light: DIVMTQSPLSLPVTPGEPASISCRSSQSLVHSNRNTYLHWYQQKPGQAPRLLIYKVSNRFSGVPDRFSGSGSGTDFTLKISRVEAEDVGVYYCGQGTQVPYTFGQGTKLEIKRTVAAPSVFIFPPSDEQLKSGTASVVCLLNNFYPREAKVQWKVDNALQSGNSQESVTEQDSKDSTYSLSSTLTLSKADYEKHKVYACEVTHQGLSSPVTKSFNRGEC | 75.5 |
